Molecular target: Rheb (UniProt Q15382)
Experiment: co-immunoprecipitation, Western blot
Conditions: reference: USP4 wild type; sites S445

- binding against the reference: weaker
Substance: USP4 (from UniProt Q13107) USP4-S445A

Reference: paper PMC6355928
